Assay results from PMC9020740.

biological target: NS2-EGFP (canine parvovirus nonstructural protein 2 fused to EGFP) (canine parvovirus (CPV) type 2); assay: proximity ligation; PLA (Duolink In Situ Orange Mouse/Rabbit) in noninfected HeLa cells transfected with NS2-EGFP, fixed 20 h after transfection; anti-GFP paired with an antibody against the host protein; nuclear PLA foci counted from 3D confocal data, n = 15

| Substance | PLA foci/nucleus (PLA foci/nucleus) |
| --- | --- |
| core histone macro-H2A.1 (from UniProt O75367 1-369) (natural protein) | 135 |
| nucleosome-remodeling helicase matrix-associated actin-dependent regulator of chromatin A5 (from UniProt O60264 1-1052) (natural protein) | 55 |
| structure specific recognition protein SSRP1 (FACT complex subunit) (from UniProt Q08945 1-709) (natural protein) | 7.5 |

biological target: Canine parvovirus nonstructural protein 2 (NS2), made in infection (canine parvovirus (CPV) type 2); assay: proximity ligation; PLA (Duolink In Situ Orange Mouse/Rabbit) in wt CPV-infected NLFK cells, fixed 24 h after infection; anti-NS2 antibody paired with an antibody against the host protein; nuclear PLA foci counted from 3D confocal data, n = 15

| Substance | PLA foci/nucleus (PLA foci/nucleus) |
| --- | --- |
| MDC1 of NLFK (feline kidney) cells (natural protein) | 22 |
| SMARCA5 of NLFK (feline kidney) cells (natural protein) | 6.5 |
| SSRP1 of NLFK (feline kidney) cells (natural protein) | 3.7 |
| macro-H2A.1 of NLFK (feline kidney) cells (natural protein) | 40 |
